Article PMC1849897 (Nucleic Acids Research, 2007)

Target: the molecule itself
Test: SEC

B1: Py-DmBLM (Drosophila Bloom's syndrome helicase homolog with an N-terminal polyoma epitope tag) (enzyme)
chain: not shown
stoichiometry N: ~7
